Values belong to the binder of their own block, whether it stands above or below them.
Assays:
[1] = molecular target: T1, human CAIX antigen on A549 cells (human, UniProt Q16790 38-459); assay: FACS, A549 cells, 1 µg/ml purified protein (FIG. 27)
[2] = molecular target: T2, human CD3 antigen on HPB-ALL cells or human T cells (human, UniProt P07766 22-126; P09693 23-111; P04234 22-103); assay: FACS, FITC-conjugated antibody on HPB-ALL cells
T2 construct: natural CD3 complex on cells (HPB-ALL, human PBMC T cells); also called human CD3 complex
T2 sequence (P07766 22-126 limits assumed, chain 1 of 3): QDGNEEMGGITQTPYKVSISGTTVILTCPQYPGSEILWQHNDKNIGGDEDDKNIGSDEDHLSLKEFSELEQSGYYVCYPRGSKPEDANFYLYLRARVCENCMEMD
T2 sequence (P09693 23-111 limits assumed, chain 2 of 3): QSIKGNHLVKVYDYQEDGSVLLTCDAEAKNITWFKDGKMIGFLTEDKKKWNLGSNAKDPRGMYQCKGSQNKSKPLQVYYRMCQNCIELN
T2 sequence (P04234 22-103 limits assumed, chain 3 of 3): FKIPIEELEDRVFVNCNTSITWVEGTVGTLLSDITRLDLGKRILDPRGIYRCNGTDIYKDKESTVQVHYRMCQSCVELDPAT
Procedure: Binding of an Ig comprising SEQ ID NOs. 2 and 4, an Ig comprising SEQ ID NOs. 6 and 8 and mAb FN18 to the cynomolgus CD3 antigen on cynomolgus PBMC and to the human CD3 antigen on HPB-ALL cells (DSMZ No. ACC 483) was tested using an FACS assay. For that purpose, 2.5×10⁵ cells were incubated with the FITC-conjugated Ig comprising SEQ ID NOs. 6 and 8 and the FITC-conjugated Ig comprising SEQ ID NOs. 2 and 4 diluted 1:25 in 50 μl PBS with 2% FCS, respectively. The incubation with the FITC-conjugated mAb FN18 antibody (Biosource International) was performed in 50 μl of undiluted antibody. The samples were measured on a FACSscan (BD biosciences, Heidelberg, FRG). Strong antigen binding on human as well as on cynomolgus cells was detected for the Ig comprising SEQ ID NOs. 2 and 4. For the Ig comprising SEQ ID NOs. 6 and 8, strong binding to human cells but weaker binding to cynomolgus cells was observed. For FN18, strong binding to cynomolgus cells could be observed whereas no binding to human cells could be detected.

[3] = molecular target: T1, human CAIX antigen on A549 cells; assay: FACS, A549 cells, 1 µg/ml purified protein (FIG. 28)
[4] = molecular target: T1, human CAIX antigen on A549 cells; assay: FACS, A549 cells, 1 µg/ml purified protein (FIG. 26)
Procedure: FIG. 26: FACS binding analysis of cross-species specific bispecific single chain construct CAIX HL×SEQ ID NO. 194 to HPB-ALL (human CD3+), cynomolgus PBMC (cynomolgus CD3+), A549 (human CAIX+) and CYNOM-KI (cynomolgus CAIX+) cells, respectively. The FACS staining was performed as described in Example 23. The thick line represents cells incubated with 1 μg/ml purified monomeric protein that were subsequently incubated with the anti-his antibody and the PE labeled detection antibody. The thin histogram line reflects the negative control: cells only incubated with the anti-his antibody and the detection antibody.
In order to test the functionality of the cross-species specific bispecific antibody constructs with regard to binding capability to human and cynomolgus EGFR and CD3, respectively, a FACS analysis was performed. For this purpose the EGFR positive epidermoid carcinoma A431 cells (ATCC, CRL-1555) and CD3 positive human T cell leukemia cell line HPB-ALL (DSMZ, Braunschweig, ACC483) were used to check the binding to human antigens. […] The cells were washed twice in PBS and binding of the construct was detected with an unlabeled murine Penta His antibody (diluted 1:20 in 50 μl PBS with 2% FCS; Qiagen; Order No. 34660). After washing, bound anti His antibodies were detected with an Fc gamma-specific antibody (Dianova) conjugated to phycoerythrin, diluted 1:100 in 50 μl PBS with 2% FCS. […]

[5] = molecular target: T3, human EpCAM antigen on Kato III cells or human EpCAM transfected CHO cells (human, UniProt P16422 24-265); assay: FACS, Kato III cells or human EpCAM transfected CHO cells, anti-His detection
T3 construct: 137 holds only the extracellular portion; the protein stood whole on cells
T3 sequence: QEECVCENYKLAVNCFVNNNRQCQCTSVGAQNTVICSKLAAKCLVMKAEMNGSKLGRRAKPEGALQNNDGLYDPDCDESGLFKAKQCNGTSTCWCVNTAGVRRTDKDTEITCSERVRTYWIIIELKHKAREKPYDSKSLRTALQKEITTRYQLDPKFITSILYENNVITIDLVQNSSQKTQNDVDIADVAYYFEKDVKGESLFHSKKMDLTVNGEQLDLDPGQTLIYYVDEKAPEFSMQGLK
Procedure: FIG. 3: FACS assay for binding of 5-10LH×SEQ ID NO. 12, 5-10LH×SEQ ID NO. 10, 5-10LH×SEQ ID NO. 16 and 5-10LH×SEQ ID NO. 14 to human Kato III cells expressing EpCAM or human EpCAM transfected CHO cells and to HPB-ALL cells. Cells bound by the respective constructs (depicted as non-filled curves) are shown in comparison to cells incubated only with the detection antibodies (depicted as filled curves). Antigen binding of all bispecific constructs was clearly detectable for the anti human EpCAM specificity as well as for the anti CD3 specificities on the HPB-ALL cell line positive for human CD3.
Binding of the bifunctional constructs to the EpCAM antigen on human Kato III cells expressing EpCAM (ATCC No. HTB-103) or on human EpCAM transfected CHO cells and to the human CD3 antigen on HPB-ALL cells was tested using an FACS assay. For that purpose 2.5×10⁵ cells were incubated with 50 μl of cell culture supernatant containing the construct. The binding of the construct was detected with an anti-His antibody (Penta-His Antibody, BSA free, obtained from Qiagen GmbH, Hilden, FRG) at 2 μg/ml in 50 μl PBS with 2% FCS. […] The samples were measured on a FACSscan (BD biosciences, Heidelberg, FRG). Antigen binding was clearly detectable for the anti human EpCAM specificity as well as for the anti CD3 specificities on the cell line positive for human CD3 (see FIG. 3).

[6] = molecular target: T4, cynomolgus EpCAM antigen on transfected CHO cells (cynomolgus, UniProt Q1WER1 24-265 (rhesus entry)); assay: FACS on cynomolgus EpCAM transfected CHO cells against untransfected cells
T4 construct: 48 holds the extracellular portion
T4 sequence: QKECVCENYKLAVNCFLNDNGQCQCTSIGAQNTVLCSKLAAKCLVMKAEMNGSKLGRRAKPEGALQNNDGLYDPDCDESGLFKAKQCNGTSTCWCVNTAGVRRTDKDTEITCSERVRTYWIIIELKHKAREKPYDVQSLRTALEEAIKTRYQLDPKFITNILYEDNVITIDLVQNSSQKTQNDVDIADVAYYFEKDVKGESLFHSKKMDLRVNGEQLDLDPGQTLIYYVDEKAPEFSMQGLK
Procedure: FIG. 7: FACS assay for the detection of the cynomolgus EpCAM antigen on transfected CHO cells. Supernatants of three different anti human EpCAM hybridomas (M79, 3B10, 2G8) were tested for binding.
To generate a cell line positive for cynomolgus EpCAM, a clone of the aforementioned coding sequence of the cynomolgus EpCAM antigen subcloned into pEFDHFR with a verified nucleotide sequence was transfected into DHFR deficient CHO cells for eukaryotic expression of the construct as described in Kaufmann R. J. (1990) Methods Enzymol. 185, 537-566). Gene amplification of the construct was induced by increasing concentrations of MTX to a final concentration of up to 500nM MTX. The transfected cells were then tested for expression of cynomolgus EpCAM using an FACS assay. For that purpose, a number of 2.5×10⁵ cells was incubated with 50 μl supernatant three different mouse anti human EpCAM hybridomas (M79—Fogler et al., Cancer Res. 48 (1988); p. 6303-8; 3B10—Passlick et al. Int. J. Cancer 87 (2000), p. 548-552; 2G8—Balzar et al., J. Mol. Med. 77 (1999), p. 699-712). […] The samples were measured on a FACSscan (BD biosciences, Heidelberg, FRG). The anti EpCAM antibody 2G8 was recognized as cross-species specific and the expression of cynomolgus EpCAM was confirmed (see FIG. 7).

B1: CAIX HL × SEQ ID NO. 170 (bispecific antibody)
chain: DVKLVESGGGLVKLGGSLKLSCAASGFTFSNYYMSWVRQTPEKRLELVAAINSDGGITYYLDTVKGRFTISRDNAKNTLYLQMSSLKSEDTALFYCARHRSGYFSMDYWGQGTSVTVSSGGGGSGGGGSGGGGSDIVMTQSQRFMSTTVGDRVSITCKASQNVVSAVAWYQQKPGQSPKLLIYSASNRYTGVPDRFTGSGSGTDFTLTISNMQSEDLADFFCQQYSNYPWTFGGGTKLEIKSGGGGSEVQLVESGGGLVQPGGSLKLSCAASGFTFNTYAMNWVRQAPGKGLEWVARIRSKYNNYATYYADSVKDRFTISRDDSKNTAYLQMNNLKTEDTAVYYCVRHGNFGNSYVSWFAYWGQGTLVTVSSGGGGSGGGGSGGGGSQTVVTQEPSLTVSPGGTVTLTCRSSTGAVTTSNYANWVQQKPGQAPRGLIGGTNKRAPGTPARFSGSLLGGKAALTLSGVQPEDEAEYYCALWYSNLWVFGGGTKLTVLHHHHHH
notes: the appendix prints the entry with HHHHHH and then *VD at its end
binding result [1]: binds

B2: monoclonal antibody (mAb) FN-18 (antibody, V domains shown)
VH: QVQLQQSEAELARPGASVKMSCKASGYTFTDYTIHWLKQRPGQGLDWIGYFNPSSESTEYNRKFKDRTILTADRSSTTAYMQLSSLTSEDSAVYYCSRKGEKLLGNRYWYFDVWGAGTSVTVSS
VL: DIVMSQSPSSLAVSVGEKVTMSCKSSQSLLYSSNQKNYLAWYQQKPGQSPKLLINWASTRESGVPDRFTGSGSRTDFTLTISSVKAEDLAVYFCQQFYSYPPTFGGGTKLEIK
notes: tested as bought FITC-conjugated antibody (Biosource International)
binding result [2]: no binding (tested: 50 µl of undiluted antibody)

B3: CAIX LH × SEQ ID NO. 170 (bispecific antibody)
chain: DIVMTQSQRFMSTTVGDRVSITCKASQNVVSAVAWYQQKPGQSPKLLIYSASNRYTGVPDRFTGSGSGTDFTLTISNMQSEDLADFFCQQYSNYPWTFGGGTKLEIKGGGGSGGGGSGGGGSDVKLVESGGGLVKLGGSLKLSCAASGFTFSNYYMSWVRQTPEKRLELVAAINSDGGITYYLDTVKGRFTISRDNAKNTLYLQMSSLKSEDTALFYCARHRSGYFSMDYWGQGTSVTVSSSGGGGSEVQLVESGGGLVQPGGSLKLSCAASGFTFNTYAMNWVRQAPGKGLEWVARIRSKYNNYATYYADSVKDRFTISRDDSKNTAYLQMNNLKTEDTAVYYCVRHGNFGNSYVSWFAYWGQGTLVTVSSGGGGSGGGGSGGGGSQTVVTQEPSLTVSPGGTVTLTCRSSTGAVTTSNYANWVQQKPGQAPRGLIGGTNKRAPGTPARFSGSLLGGKAALTLSGVQPEDEAEYYCALWYSNLWVFGGGTKLTVLHHHHHH
notes: as for B1
binding result [3]: binds

More lines, now with the values ahead:

binding result [4]: binds
B4: CAIX HL × SEQ ID NO. 194 (bispecific antibody)
chain: DVKLVESGGGLVKLGGSLKLSCAASGFTFSNYYMSWVRQTPEKRLELVAAINSDGGITYYLDTVKGRFTISRDNAKNTLYLQMSSLKSEDTALFYCARHRSGYFSMDYWGQGTSVTVSSGGGGSGGGGSGGGGSDIVMTQSQRFMSTTVGDRVSITCKASQNVVSAVAWYQQKPGQSPKLLIYSASNRYTGVPDRFTGSGSGTDFTLTISNMQSEDLADFFCQQYSNYPWTFGGGTKLEIKSGGGGSQTVVTQEPSLTVSPGGTVTLTCRSSTGAVTTSNYANWVQQKPGQAPRGLIGGTNKRAPGTPARFSGSLLGGKAALTLSGVQPEDEAEYYCALWYSNLWVFGGGTKLTVLGGGGSGGGGSGGGGSEVQLVESGGGLVQPGGSLKLSCAASGFTFNTYAMNWVRQAPGKGLEWVARIRSKYNNYATYYADSVKDRFTISRDDSKNTAYLQMNNLKTEDTAVYYCVRHGNFGNSYVSWFAYWGQGTLVTVSSHHHHHH
notes: as for B1

binding result [5]: binds
B5: 5-10LH×SEQ ID NO. 16 bispecific single chain antibody (bispecific antibody)
chain: ELVMTQSPSSLTVTAGEKVTMSCKSSQSLLNSGNQKNYLTWYQQKPGQPPKLLIYWASTRESGVPDRFTGSGSGTDFTLTISSVQAEDLAVYYCQNDYSYPLTFGAGTKLEIKGGGGSGGGGSGGGGSEVQLLEQSGAELVRPGTSVKISCKASGYAFTNYWLGWVKQRPGHGLEWIGDIFPGSGNIHYNEKFKGKATLTADKSSSTAYMQLSSLTFEDSAVYFCARLRNWDEPMDYWGQGTTVTVSSGGGGSQVVLTQSPAIMSAFPGEKVTMTCSASSSVSYMNWYQQKSGTSPKRWIYDSSKLASGVPARFSGSGSGTSYSLTISSMETEDAATYYCQQWSRNPPTFGGGTKLQITGGGGSGGGGSGGGGSQVQLQQSGAELARPGASVKMSCKASGYTFTRSTMHWVKQRPGQGLEWIGYINPSSAYTNYNQKFKDKATLTADKSSSTAYMQLSSLTSEDSAVYYCASPQVHYDYNGFPYWGQGTLVTVSAHHHHHH

binding result [6]: binds
B6: anti EpCAM antibody 2G8 (antibody, V domains shown)
VH: EVQLQQSGAELVRSGASVKLSCTASGFNIKDYYLHWVKQRPEQGLEWIAWIDLENGDIKYAPKFQGKATITADTSSNTAYLQLSSLTSEDTAVYYCNPYYYGSNYDYAMDYWGQGTSVTVSS
VL: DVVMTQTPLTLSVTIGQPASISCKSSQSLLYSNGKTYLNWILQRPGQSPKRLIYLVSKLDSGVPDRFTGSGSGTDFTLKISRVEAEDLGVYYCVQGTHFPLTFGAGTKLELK
notes: mouse hybridoma supernatant; also called 2G8 hybridoma
